T1: human elastin (human, UniProt P15502 27-786)
T1 construct: elastin, human; No catalogue number printed; a commercial soluble elastin may be a cross-linked or hydrolysed tissue preparation; source: bought: Sigma-Aldrich
T1 sequence (looked up): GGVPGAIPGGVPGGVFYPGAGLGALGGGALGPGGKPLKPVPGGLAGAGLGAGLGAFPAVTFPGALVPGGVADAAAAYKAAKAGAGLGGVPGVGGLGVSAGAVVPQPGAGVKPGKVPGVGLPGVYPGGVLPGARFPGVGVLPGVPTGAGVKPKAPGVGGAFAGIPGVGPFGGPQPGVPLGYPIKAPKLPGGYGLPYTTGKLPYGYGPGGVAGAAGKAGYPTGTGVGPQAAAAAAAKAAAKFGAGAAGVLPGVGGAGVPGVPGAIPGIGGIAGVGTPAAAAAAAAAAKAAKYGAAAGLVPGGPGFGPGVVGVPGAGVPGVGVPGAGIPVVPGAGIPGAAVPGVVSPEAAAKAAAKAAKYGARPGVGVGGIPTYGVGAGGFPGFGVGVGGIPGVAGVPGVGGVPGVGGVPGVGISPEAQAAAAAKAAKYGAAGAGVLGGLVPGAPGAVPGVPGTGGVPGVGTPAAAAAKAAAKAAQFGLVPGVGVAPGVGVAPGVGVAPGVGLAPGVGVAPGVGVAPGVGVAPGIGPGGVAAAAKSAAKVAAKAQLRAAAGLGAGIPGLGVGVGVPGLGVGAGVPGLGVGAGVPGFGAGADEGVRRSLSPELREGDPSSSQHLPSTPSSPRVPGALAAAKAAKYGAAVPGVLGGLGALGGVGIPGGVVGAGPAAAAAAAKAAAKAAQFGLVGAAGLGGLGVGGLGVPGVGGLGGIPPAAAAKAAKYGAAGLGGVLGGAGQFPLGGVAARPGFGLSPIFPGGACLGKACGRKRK


Columns and labels:
[1] = target: Candida albicans triosephosphate isomerase (Tpi1) (Candida albicans (strain ATCC 10231)) (UniProt Q9P940); experiment: SPR; Biacore 3000, Tpi1 amine-coupled to a CM5 chip (ca. 150 RU), human ECM proteins 50-750 nM injected; 10 mM HEPES, 150 mM NaCl, 0.005 % P20, pH 7.4; 1:1 Langmuir model, global or local fit
[2] = target: Candida glabrata triosephosphate isomerase (Tpi1) (Candida glabrata (strain CBS138, ATCC 2001)) (UniProt Q6FRI3); experiment: as above
human vitronectin [3] = target: T2, human vitronectin (human, UniProt P04004 20-478, biotin (NHS-biotin) in the whole-cell assay only; sulfo-SDAD on amino groups in the cross-linking experiment); experiment: as above; settings: both partners purified
T2 construct: vitronectin, human; UniProt ID printed for the modelling only (there: vitronectin V65 subunit); No catalogue number printed; also called VTR; source: bought: R&D Systems
T2 sequence (P04004 20-478): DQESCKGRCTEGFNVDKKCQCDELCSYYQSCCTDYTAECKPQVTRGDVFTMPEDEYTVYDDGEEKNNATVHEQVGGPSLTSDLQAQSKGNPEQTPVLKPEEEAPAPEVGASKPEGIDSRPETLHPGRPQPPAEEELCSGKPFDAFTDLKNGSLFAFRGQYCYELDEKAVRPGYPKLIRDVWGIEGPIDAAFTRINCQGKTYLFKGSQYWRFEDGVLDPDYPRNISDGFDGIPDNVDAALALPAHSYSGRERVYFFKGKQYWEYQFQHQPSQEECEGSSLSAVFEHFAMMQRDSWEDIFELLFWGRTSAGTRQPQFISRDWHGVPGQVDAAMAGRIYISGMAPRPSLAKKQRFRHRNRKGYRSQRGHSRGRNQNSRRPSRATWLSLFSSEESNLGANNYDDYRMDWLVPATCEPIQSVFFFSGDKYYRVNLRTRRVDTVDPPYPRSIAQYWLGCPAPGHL

human elastin = target: T1, human elastin; experiment: as above; settings: both partners purified
[4] = target: human ECM proteins tested in the microplate-based protein-binding assay (Fig. 5); experiment: ELISA; microplate-based protein-binding assay: human ECM proteins coated (3 pmoles per well, MaxiSorp, overnight 4 °C), biotin-labelled Tpi1 10-800 nM in PBS, 1.5 h at 37 °C, SA-HRP/TMB detection; apparent KD
human collagen (human) = experiment: as above
human vitronectin [5] = target: T2, human vitronectin; experiment: as above; settings: both partners purified

Molecule | Kd [1] | koff [1] | kon [1] | Kd [2] | koff [2] | kon [2] | Kd (human vitronectin [3]) | koff (human vitronectin [3]) | kon (human vitronectin [3]) | Kd (human elastin) | koff (human elastin) | kon (human elastin) | Kd [4] | Kd (human collagen (human)) | Kd (human vitronectin [5])
human collagen (natural protein) | 109 nM | 0.00199 s⁻¹ | 18200 M⁻¹ s⁻¹ | 214 nM | 0.00308 s⁻¹ | 14400 M⁻¹ s⁻¹ | – | – | – | – | – | – | – | – | –
human fibronectin (from UniProt P02751 32-2477) (natural protein) | 326 nM | 0.0105 s⁻¹ | 32200 M⁻¹ s⁻¹ | 730 nM | 0.0473 s⁻¹ | 64800 M⁻¹ s⁻¹ | – | – | – | – | – | – | – | – | –
human laminin (complex) | 739 nM | 0.0327 s⁻¹ | 44200 M⁻¹ s⁻¹ | 253 nM | 0.00339 s⁻¹ | 13400 M⁻¹ s⁻¹ | – | – | – | – | – | – | – | – | –
Candida glabrata triosephosphate isomerase (Tpi1) (enzyme, biotin (NHS-biotin) in the microplate assay; unlabelled in SPR and on cells, triosephosphate isomerase Tpi1 of Candida glabrata, native protein isolated from the cell wall; identifier not given; Native protein, enzymatically active, no attached sugars found; also called C. glabrata Tpi1; source: also endogenous, on live C. glabrata cells) MARTFFVGGNFKLNGTKKSIKEIVDRLNTASLPENVEVVICPPATYLDYTVSLVSKKQVTVGGQNTYTKASGAYTGENSVDQLKDVGAKWVILGHSERRTYFHEDDKIVAEKTKFALDQGLGVILCIGETLEEKKAGVTLKVVERQLDAVIAEVKDWTNVVIAYEPVWAIGTGLAATAEDAQDIHHSIRSYLAEKLGKDTAEKTRILYGGSANGANAGTFKDKADVDGFLVGGASLKPEFVDIINSRN | – | – | – | – | – | – | 168 nM | 0.0031 s⁻¹ | 18400 M⁻¹ s⁻¹ | 20.1 nM | 0.00191 s⁻¹ | 95100 M⁻¹ s⁻¹ | 100 nM | 1000 nM | –
Candida albicans triosephosphate isomerase (Tpi1) (enzyme, biotin (NHS-biotin) in the microplate assays; unlabelled in SPR, cross-linking and on cells, triosephosphate isomerase Tpi1 of Candida albicans, native protein isolated from the cell wall; the UniProt ID is printed for the molecular modelling; Native protein, enzymatically active, no attached sugars found; The strain used (ATCC 10231) may differ from the strain of the UniProt entry; Modelled as a dimer, oligomeric state not measured here; also called C. albicans Tpi1; source: also …) MARQFFVGGNFKANGTKQQITSIIDNLNKADLPKDVEVVICPPALYLGLAVEQNKQPTVAIGAQNVFDKSCGAFTGETCASQILDVGASWTLTGHSERRTIIKESDEFIAEKTKFALDTGVKVILCIGETLEERKGGVTLDVCARQLDAVSKIVSDWSNIVVAYEPVWAIGTGLAATPEDAEETHKGIRAHLAKSIGAEQAEKTRILYGGSVNGKNAKDFKDKANVDGFLVGGASLKPEFVDIIKSRL | – | – | – | – | – | – | 86 nM | 0.00877 s⁻¹ | 102000 M⁻¹ s⁻¹ | 821 nM | 0.0382 s⁻¹ | 46500 M⁻¹ s⁻¹ | – | – | ~10 nM

— paper PMC8252264, “Candida albicans and Candida glabrata triosephosphate isomerase – a moonlighting protein that can be exposed on the candidal cell surface and bind to human extracellular matrix proteins” (BMC Microbiology, 2021)
